Values quoted from earlier work in publication PMC4257090.
Read-outs that look alike come from different tables or passages of the source.

Legend:
[1] = target: SecA (membrane-bound) (Escherichia coli) (UniProt P10408)
[2] = target: SecA (membrane-bound) (Escherichia coli) (UniProt P10408); remark: listed apart in the source
[3] = target: SecA (soluble) (Escherichia coli) (UniProt P10408)

SecB (from UniProt P0AG86)
Kd [1]: 30 nM | Kd [2]: 10 nM | Kd [3]: 1500 nM
